Publication PMC4687643, “SH3 Domains Differentially Stimulate Distinct Dynamin I Assembly Modes and G Domain Activity” (PLoS ONE, 2015)

Key:
Assay in all cases: cell-based or functional assay
[1] = biological target: T1, GST-endophilin I SH3 domain (mouse, UniProt Q62420 290-349)
[2] = biological target: T2, GST-Cdc42 interacting protein 4 (CIP4) SH3 domain (human, UniProt Q15642 540-601)
T2 sequence (looked up): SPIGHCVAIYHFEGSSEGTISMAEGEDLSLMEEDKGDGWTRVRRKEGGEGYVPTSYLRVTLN

[3] = biological target: T3, GST-Formin Binding Protein 17 (FBP17) SH3 domain (human, UniProt Q96RU3 550-611)
T3 sequence (looked up): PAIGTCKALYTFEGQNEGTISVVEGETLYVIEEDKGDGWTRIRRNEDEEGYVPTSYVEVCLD

[4] = biological target: T4, GST-Actin binding protein 1 (Abp1) SH3 domain (mouse, UniProt Q62418 377-436)
T4 sequence (Q62418 377-436): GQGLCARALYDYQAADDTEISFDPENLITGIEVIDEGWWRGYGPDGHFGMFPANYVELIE

[5] = biological target: GST-intersectin I SH3A domain (Xenopus laevis)
[6] = biological target: T5, GST-amphiphysin II SH3 domain (human, UniProt O00499 520-593)
T5 sequence (looked up): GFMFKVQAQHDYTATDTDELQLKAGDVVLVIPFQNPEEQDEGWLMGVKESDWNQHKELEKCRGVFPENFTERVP

[7] = biological target: T6, GST-syndapin I SH3 domain (mouse, UniProt Q61644 382-441)
T6 sequence (Q61644 382-441): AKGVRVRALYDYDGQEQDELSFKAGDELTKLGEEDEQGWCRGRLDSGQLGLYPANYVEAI

[8] = biological target: T7, GST-amphiphysin I SH3 domain (human, UniProt P49418 622-695)
T7 sequence (looked up): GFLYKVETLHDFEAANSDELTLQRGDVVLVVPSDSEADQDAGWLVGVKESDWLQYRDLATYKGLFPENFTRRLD

[9] = biological target: GST-intersectin I SH3E domain (Xenopus laevis)
GST-p85 SH3 domain [10] = biological target: T8, GST-p85 SH3 domain (bovine, UniProt P23727 3-79)
[11] = biological target: GST-intersectin I SH3C domain (Xenopus laevis)
GST-cortactin SH3 domain [12] = biological target: T9, GST-cortactin SH3 domain (mouse, UniProt Q60598 488-546)
T9 sequence (Q60598 488-546): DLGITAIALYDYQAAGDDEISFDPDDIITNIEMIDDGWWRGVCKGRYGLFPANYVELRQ

[13] = biological target: T10, GST-sorting-nexin 9 (SNX9) SH3 domain (human, UniProt Q9Y5X1 1-62)
T10 sequence (Q9Y5X1 1-62): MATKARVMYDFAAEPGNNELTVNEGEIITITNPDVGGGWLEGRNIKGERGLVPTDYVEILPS

[14] = biological target: T1, GST-endophilin I SH3 domain; remark: listed apart in the source
[15] = biological target: T2, GST-Cdc42 interacting protein 4 (CIP4) …; remark: listed apart in the source
[16] = biological target: T3, GST-Formin Binding Protein 17 (FBP17) …; remark: listed apart in the source
[17] = biological target: T4, GST-Actin binding protein 1 (Abp1) SH3 …; remark: listed apart in the source
[18] = biological target: GST-intersectin I SH3A domain (Xenopus laevis); remark: listed apart in the source
[19] = biological target: T5, GST-amphiphysin II SH3 domain; remark: listed apart in the source
[20] = biological target: T6, GST-syndapin I SH3 domain; remark: listed apart in the source
[21] = biological target: T7, GST-amphiphysin I SH3 domain; remark: listed apart in the source
[22] = biological target: GST-intersectin I SH3E domain (Xenopus laevis); remark: listed apart in the source
GST-p85 SH3 domain [23] = biological target: T8, GST-p85 SH3 domain; remark: listed apart in the source
[24] = biological target: GST-intersectin I SH3C domain (Xenopus laevis); remark: listed apart in the source
GST-cortactin SH3 domain [25] = biological target: T9, GST-cortactin SH3 domain; remark: listed apart in the source
[26] = biological target: T10, GST-sorting-nexin 9 (SNX9) SH3 domain; remark: listed apart in the source

T1 sequence (Q62420 290-349): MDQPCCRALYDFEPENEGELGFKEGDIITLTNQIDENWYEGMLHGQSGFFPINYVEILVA

rate of dynamin GTPase activity stimulated by the GST-SH3 domain (ELIPA, 30 mM NaCl, basal rate subtracted) [1]: 0.012 μmoles Pi/mg of dyn/min
rate of dynamin GTPase activity stimulated by the GST-SH3 domain (ELIPA, 30 mM NaCl, basal rate subtracted) [2]: 0 μmoles Pi/mg of dyn/min
rate of dynamin GTPase activity stimulated by the GST-SH3 domain (ELIPA, 30 mM NaCl, basal rate subtracted) [3]: 0.016 μmoles Pi/mg of dyn/min
rate of dynamin GTPase activity stimulated by the GST-SH3 domain (ELIPA, 30 mM NaCl, basal rate subtracted) [4]: 0 μmoles Pi/mg of dyn/min
rate of dynamin GTPase activity stimulated by the GST-SH3 domain (ELIPA, 30 mM NaCl, basal rate subtracted) [5]: 0.101 μmoles Pi/mg of dyn/min
rate of dynamin GTPase activity stimulated by the GST-SH3 domain (ELIPA, 30 mM NaCl, basal rate subtracted) [6]: 0.001 μmoles Pi/mg of dyn/min
rate of dynamin GTPase activity stimulated by the GST-SH3 domain (ELIPA, 30 mM NaCl, basal rate subtracted) [7]: 0.033 μmoles Pi/mg of dyn/min
rate of dynamin GTPase activity stimulated by the GST-SH3 domain (ELIPA, 30 mM NaCl, basal rate subtracted) [8]: 0.029 μmoles Pi/mg of dyn/min
rate of dynamin GTPase activity stimulated by the GST-SH3 domain (ELIPA, 30 mM NaCl, basal rate subtracted) [9]: 0.005 μmoles Pi/mg of dyn/min
rate of dynamin GTPase activity stimulated by the GST-SH3 domain (ELIPA, 30 mM NaCl, basal rate subtracted) (GST-p85 SH3 domain [10]): 0.009 μmoles Pi/mg of dyn/min
rate of dynamin GTPase activity stimulated by the GST-SH3 domain (ELIPA, 30 mM NaCl, basal rate subtracted) [11]: 0.008 μmoles Pi/mg of dyn/min
rate of dynamin GTPase activity stimulated by the GST-SH3 domain (ELIPA, 30 mM NaCl, basal rate subtracted) (GST-cortactin SH3 domain [12]): 0.031 μmoles Pi/mg of dyn/min
rate of dynamin GTPase activity stimulated by the GST-SH3 domain (ELIPA, 30 mM NaCl, basal rate subtracted) [13]: 0.027 μmoles Pi/mg of dyn/min
dynamin GTPase activity stimulated by the GST-SH3 domain (ELIPA, 30 mM NaCl), fold change relative to no SH3 [14]: 2.82 fold change
dynamin GTPase activity stimulated by the GST-SH3 domain (ELIPA, 30 mM NaCl), fold change relative to no SH3 [15]: 0.83 fold change
dynamin GTPase activity stimulated by the GST-SH3 domain (ELIPA, 30 mM NaCl), fold change relative to no SH3 [16]: 3.97 fold change
dynamin GTPase activity stimulated by the GST-SH3 domain (ELIPA, 30 mM NaCl), fold change relative to no SH3 [17]: 1.03 fold change
dynamin GTPase activity stimulated by the GST-SH3 domain (ELIPA, 30 mM NaCl), fold change relative to no SH3 [18]: 14.7 fold change
dynamin GTPase activity stimulated by the GST-SH3 domain (ELIPA, 30 mM NaCl), fold change relative to no SH3 [19]: 1.09 fold change
dynamin GTPase activity stimulated by the GST-SH3 domain (ELIPA, 30 mM NaCl), fold change relative to no SH3 [20]: 5.9 fold change
dynamin GTPase activity stimulated by the GST-SH3 domain (ELIPA, 30 mM NaCl), fold change relative to no SH3 [21]: 5.32 fold change
dynamin GTPase activity stimulated by the GST-SH3 domain (ELIPA, 30 mM NaCl), fold change relative to no SH3 [22]: 1.83 fold change
dynamin GTPase activity stimulated by the GST-SH3 domain (ELIPA, 30 mM NaCl), fold change relative to no SH3 (GST-p85 SH3 domain [23]): 2.24 fold change
dynamin GTPase activity stimulated by the GST-SH3 domain (ELIPA, 30 mM NaCl), fold change relative to no SH3 [24]: 2.1 fold change
dynamin GTPase activity stimulated by the GST-SH3 domain (ELIPA, 30 mM NaCl), fold change relative to no SH3 (GST-cortactin SH3 domain [25]): 5.49 fold change
dynamin GTPase activity stimulated by the GST-SH3 domain (ELIPA, 30 mM NaCl), fold change relative to no SH3 [26]: 5.12 fold change
B1: endogenous sheep brain dynamin I (enzyme)
chain: MGNRGMEDLIPLVNRLQDAFSAIGQNADLDLPQIAVVGGQSAGKSSVLENFVGRDFLPRGSGIVTRRPLVLQLVNATTEYAEFLHCKGKKFTDFEEVRLEIEAETDRVTGTNKGISPVPINLRVYSPHVLNLTLVDLPGMTKVPVGDQPPDIEFQIRDMLMQFVTKENCLILAVSPANSDLANSDALKVAKEVDPQGQRTIGVITKLDLMDEGTDARDVLENKLLPLRRGYIGVVNRSQKDIDGKKDITAALAAERKFFLSHPSYRHLADRMGTPYLQKVLNQQLTNHIRDTLPGLRNKLQSQLLSIEKEVEEYKNFRPDDPARKTKALLQMVQQFAVDFEKRIEGSGDQIDTYELSGGARINRIFHERFPFELVKMEFDEKELRREISYAIKNIHGIRTGLFTPDLAFEATVKKQVQKLKEPSIKCVDMVVSELTATIRKCSEKLQQYPRLREEMERIVTTHIREREGRTKEQVMLLIDIELAYMNTNHEDFIGFANAQQRSNQMNKKKASGNQDEILVIRKGWLTINNIGIMKGGSKEYWFVLTAENLSWYKDDEEKEKKYMLSVDNLKLRDVEKGFMSSKHIFALFNTEQRNVYKDYRQLELACETQEEVDSWKASFLRAGVYPERVGDKEKASETEENGSDSFMHSMDPQLERQVETIRNLVDSYMAIVNKTVRDLMPKTIMHLMINNTKEFIFSELLANLYSCGDQNTLMEESAEQAQRRDEMLRMYHALKEALSIIGDINTTTVSTPMPPPVDDSWLQVQSVPTGRRSPTSSPTPQRRAPAVPPARPGSRGPAPGPPPAGSALGGAPPVPSRPGASPDPFGPPPQVPSRPNRAPPGVPSRSGQASPSRPESPRPPFDL
